We go through two compounds from paper PMC4815018, “Oligomerization as a strategy for cold adaptation: Structure and dynamics of the GH1 β-glucosidase from Exiguobacterium antarcticum B7” (Scientific Reports, 2016).

In one assay the target is T1, EaBglA (Exiguobacterium antarcticum, UniProt A0ABF7PFW8).
T1 construct: gene bglA
The assay can be described thus: colorimetric release of 4-nitrophenol at […] nm. Type of assay: biochemical. Particulars: 0.5 mM pNPG, 20 nM enzyme, 40 mM sodium phosphate pH 7.0, 30 °C, 10 min; tetramer.

Assay [1] deals with GH1 β-glucosidase from Exiguobacterium antarcticum B7 (Exiguobacterium antarcticum B7).
Assay [2] has the same target. The assay can be described thus: AUC; sedimentation velocity, 35,000 rpm, 20 °C, 0.2, 0.4 and 1 mg/mL in 20 mM sodium phosphate, 150 mM NaCl, pH 7.4.
The target is the same in assay [3]. The assay can be described thus: SEC; Superdex 75 16/60, 20 mM sodium phosphate, 150 mM NaCl, pH 7.5, 0.5 mL/min; two peaks (tetramers and monomers); samples at 4 mg/mL.
For assay [4] the target is unchanged. The assay is described as follows: SAXS; 1 and 2 mg/mL in 20 mM sodium phosphate, 150 mM NaCl, pH 7.4, 20 °C; experimental curve and ab initio model compared with the crystallographic tetramer.
For assay [5] the target is unchanged. The assay is described as follows: crystal structure; two crystal forms, P2(1) (0.1 M TRIS pH 8.5, 2% PEG400, 1.45 M lithium sulfate) and C222(1) (0.1 M CAPS pH 10.5, 0.2 M lithium sulfate, 2 M ammonium sulfate, in situ proteolysis with trypsin); 18 °C, protein at 15 mg/mL.

T1 sequence (A0ABF7PFW8 entry or part of it): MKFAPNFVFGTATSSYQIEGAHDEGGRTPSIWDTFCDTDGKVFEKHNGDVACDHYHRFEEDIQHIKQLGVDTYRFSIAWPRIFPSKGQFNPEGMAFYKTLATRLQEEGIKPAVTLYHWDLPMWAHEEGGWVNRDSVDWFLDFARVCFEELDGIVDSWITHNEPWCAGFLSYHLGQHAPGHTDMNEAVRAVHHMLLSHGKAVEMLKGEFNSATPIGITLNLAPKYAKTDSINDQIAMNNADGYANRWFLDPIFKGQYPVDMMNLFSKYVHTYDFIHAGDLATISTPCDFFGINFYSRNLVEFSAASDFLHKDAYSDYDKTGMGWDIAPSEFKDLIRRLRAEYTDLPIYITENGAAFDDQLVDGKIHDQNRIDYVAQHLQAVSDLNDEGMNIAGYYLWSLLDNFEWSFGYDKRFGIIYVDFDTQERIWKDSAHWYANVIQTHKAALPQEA

Take `O=[N+]([O-])c1ccc(O[C@@H]2O[C@H](CO)[C@@H](O)[C@H](O)[C@H]2O)cc1` [4-nitrophenyl β-D-glucopyranoside]: the “relative activity (%)” value on EaBglA is listed as “Enzyme activity was measured using the colorimetric substrate 4-nitrophenyl β-D-glucopyranoside (pNPG”.
Turning to “GH1 β-glucosidase from Exiguobacterium antarcticum B7 (enzyme)”, the relative enzyme activity on pNPG (30 °C, pH 7.0, 20 nM enzyme) of the monomer fraction against the tetramer fraction in assay [1] was 10 fold. Further, the stoichiometry N in assay [2], in assay [3], in assay [4] and in assay [5] was 4 in each case.

By stoichiometry N is commonly meant a count of units in the complex or per binding partner.
